Target: T1, human IL-2 receptor IL-2Rα/IL-2Rβ/γc on HEK-Blue IL-2 cells (UniProt P01589 22-272; P14784 27-551; P31785 23-369)
T1 chain 1: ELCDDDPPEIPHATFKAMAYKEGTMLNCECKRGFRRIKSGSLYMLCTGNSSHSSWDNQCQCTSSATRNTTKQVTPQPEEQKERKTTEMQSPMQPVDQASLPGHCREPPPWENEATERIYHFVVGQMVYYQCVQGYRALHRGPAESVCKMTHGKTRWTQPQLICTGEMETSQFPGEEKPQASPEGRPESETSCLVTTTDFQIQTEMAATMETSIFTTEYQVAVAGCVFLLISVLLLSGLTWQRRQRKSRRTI
T1 chain 2: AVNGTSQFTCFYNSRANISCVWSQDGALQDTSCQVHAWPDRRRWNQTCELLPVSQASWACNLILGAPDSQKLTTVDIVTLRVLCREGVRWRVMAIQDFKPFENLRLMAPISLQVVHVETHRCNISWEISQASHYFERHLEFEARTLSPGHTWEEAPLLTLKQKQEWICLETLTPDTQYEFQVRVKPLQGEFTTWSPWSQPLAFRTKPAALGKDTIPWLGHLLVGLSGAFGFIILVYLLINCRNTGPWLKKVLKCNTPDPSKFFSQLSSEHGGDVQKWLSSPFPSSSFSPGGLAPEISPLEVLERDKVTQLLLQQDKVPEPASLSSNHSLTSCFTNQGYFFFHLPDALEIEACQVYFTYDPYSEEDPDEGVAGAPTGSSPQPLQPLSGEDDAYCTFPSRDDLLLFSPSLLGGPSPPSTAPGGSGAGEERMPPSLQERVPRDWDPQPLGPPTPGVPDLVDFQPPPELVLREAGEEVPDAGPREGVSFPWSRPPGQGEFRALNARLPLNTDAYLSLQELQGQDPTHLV
T1 chain 3: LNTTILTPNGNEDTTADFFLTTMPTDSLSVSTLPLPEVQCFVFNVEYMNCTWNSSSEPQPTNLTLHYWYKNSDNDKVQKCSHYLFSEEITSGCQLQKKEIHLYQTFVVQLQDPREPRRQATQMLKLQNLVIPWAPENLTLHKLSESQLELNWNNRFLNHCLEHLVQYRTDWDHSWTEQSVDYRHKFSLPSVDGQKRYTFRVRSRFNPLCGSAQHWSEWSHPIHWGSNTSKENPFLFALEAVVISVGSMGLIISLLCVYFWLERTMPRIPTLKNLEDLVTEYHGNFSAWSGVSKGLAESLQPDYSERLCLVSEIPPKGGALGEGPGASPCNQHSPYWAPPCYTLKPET
Test: FACS cell binding; avid

Binder | EC50 [nM]
BsVHH-11 (27x19) (antibody) QVQLVESGGGLVQAGGSLTLSCAAPGRTFGTDVVGWFRQAPGKEREFVASISRSGDGIYYDDSVKGRFTISRNNAWNTVNLQMNSLKVEDTAVYYCAAGDGWSTYDYWGQGTQVTVSSGGGGSGGGGSGGGGSGSEVQLVESGGGLVQTGGSLRLSCAASGGTFSRDAMAWFRQVPGKEREFVALISWSGATTNYADSVKGRFAISRDNGKNTVYLQMNRLKPADTAIYYCAADRRPMGSRSYFEPTEYDDWGQGTQVTVSSGGGGSGGGGSGGGGSTVSSDKTHTCPPCPAPEAAGGPSVFLFPPKPKDTLMISRTPEVTCVVVDVSHEDPEVKFNWYVDGVEVHNAKTKPREEQYNSTYRVVSVLTVLHQDWLNGKEYKCKVSNKALGAPIEKTISKAKGQPREPQVYTLPPSRDELTKNQVSLTCLVKGFYPSDIAVEWESNGQPENNYKTTPPVLDSDGSFLLYSKLTVDKSRWQQGNVFSCSVMHEALHNHYTQKSLSLSPGK | 38.1
BsVHH-16 (27x22) (antibody) QVQLVESGGGLVQAGGSLTLSCAAPGRTFGTDVVGWFRQAPGKEREFVASISRSGDGIYYDDSVKGRFTISRNNAWNTVNLQMNSLKVEDTAVYYCAAGDGWSTYDYWGQGTQVTVSSGGGGSGGGGSGGGGSGSEVQLVESGGGLVQAGGSLRLSCAASGSIFSINAMAWFRQVPGMERELVAAISRDGGASVYRDSVKGRFTISRDNSKNTVYLQMNTLKPEDTAIYVCAATRAIGWTARWITTDFDFWGQGTQVTVSSGGGGSGGGGSGGGGSTVSSDKTHTCPPCPAPEAAGGPSVFLFPPKPKDTLMISRTPEVTCVVVDVSHEDPEVKFNWYVDGVEVHNAKTKPREEQYNSTYRVVSVLTVLHQDWLNGKEYKCKVSNKALGAPIEKTISKAKGQPREPQVYTLPPSRDELTKNQVSLTCLVKGFYPSDIAVEWESNGQPENNYKTTPPVLDSDGSFLLYSKLTVDKSRWQQGNVFSCSVMHEALHNHYTQKSLSLSPGK | 659
BsVHH-13 (32x19) (antibody) QVQLVESGGGLVQAGGSLRLSCAASGRTFGSTAVGWFRQVPGKEREFVSAINRSGSATTYADSVKGRFTISRDNAKNTVYLQMNSLTPEDTGVYYCAADSLPYGRPYYFQRSAGEYDYWGQGTQVTVSSGGGGSGGGGSGGGGSGSEVQLVESGGGLVQTGGSLRLSCAASGGTFSRDAMAWFRQVPGKEREFVALISWSGATTNYADSVKGRFAISRDNGKNTVYLQMNRLKPADTAIYYCAADRRPMGSRSYFEPTEYDDWGQGTQVTVSSGGGGSGGGGSGGGGSTVSSDKTHTCPPCPAPEAAGGPSVFLFPPKPKDTLMISRTPEVTCVVVDVSHEDPEVKFNWYVDGVEVHNAKTKPREEQYNSTYRVVSVLTVLHQDWLNGKEYKCKVSNKALGAPIEKTISKAKGQPREPQVYTLPPSRDELTKNQVSLTCLVKGFYPSDIAVEWESNGQPENNYKTTPPVLDSDGSFLLYSKLTVDKSRWQQGNVFSCSVMHEALHNHYTQKSLSLSPGK | 41.8
BsVHH-5 (36x16) (antibody) QVQLVESGGGLVQAGGSLRLSCAASGRTLSRYAMGWFRQAPGSEREFVAASSWGGDTFYADSVEGRFTFSRDNAKNAVYLQMNSLQPEDTAAYYCAAAPTSFPTTAYSSSNSYAYWGQGTQVTVSSGGGGSGGGGSGGGGSGSEVQLVESGGGLVQAGGSLRLSCAASGRAIENYPVGWFRQAPGKEREFVAAITWISGSTLYADSVKGRFTISRDNAKNTVYLQMSSLKPEDTALYYCAAALKTITRGQNDYSYWGQGTQVTVSSGGGGSGGGGSGGGGSTVSSDKTHTCPPCPAPEAAGGPSVFLFPPKPKDTLMISRTPEVTCVVVDVSHEDPEVKFNWYVDGVEVHNAKTKPREEQYNSTYRVVSVLTVLHQDWLNGKEYKCKVSNKALGAPIEKTISKAKGQPREPQVYTLPPSRDELTKNQVSLTCLVKGFYPSDIAVEWESNGQPENNYKTTPPVLDSDGSFLLYSKLTVDKSRWQQGNVFSCSVMHEALHNHYTQKSLSLSPGK | 121
BsVHH-3 (32x16) (antibody) QVQLVESGGGLVQAGGSLRLSCAASGRTFGSTAVGWFRQVPGKEREFVSAINRSGSATTYADSVKGRFTISRDNAKNTVYLQMNSLTPEDTGVYYCAADSLPYGRPYYFQRSAGEYDYWGQGTQVTVSSGGGGSGGGGSGGGGSGSEVQLVESGGGLVQAGGSLRLSCAASGRAIENYPVGWFRQAPGKEREFVAAITWISGSTLYADSVKGRFTISRDNAKNTVYLQMSSLKPEDTALYYCAAALKTITRGQNDYSYWGQGTQVTVSSGGGGSGGGGSGGGGSTVSSDKTHTCPPCPAPEAAGGPSVFLFPPKPKDTLMISRTPEVTCVVVDVSHEDPEVKFNWYVDGVEVHNAKTKPREEQYNSTYRVVSVLTVLHQDWLNGKEYKCKVSNKALGAPIEKTISKAKGQPREPQVYTLPPSRDELTKNQVSLTCLVKGFYPSDIAVEWESNGQPENNYKTTPPVLDSDGSFLLYSKLTVDKSRWQQGNVFSCSVMHEALHNHYTQKSLSLSPGK | 3.7
BsVHH-6 (27x18) (antibody) QVQLVESGGGLVQAGGSLTLSCAAPGRTFGTDVVGWFRQAPGKEREFVASISRSGDGIYYDDSVKGRFTISRNNAWNTVNLQMNSLKVEDTAVYYCAAGDGWSTYDYWGQGTQVTVSSGGGGSGGGGSGGGGSGSQVQLVESGGGLVQPGGSLRLSCAISGGTLDSYGIGWVRQAPGKQREGVSCMSRSDDRTYYADSVKGRFTISKDSAKNTVYLQMTSLKPEDTAVYYCAAVDAYGCSLVQPTTYDFWGLGTQVTVSSGGGGSGGGGSGGGGSTVSSDKTHTCPPCPAPEAAGGPSVFLFPPKPKDTLMISRTPEVTCVVVDVSHEDPEVKFNWYVDGVEVHNAKTKPREEQYNSTYRVVSVLTVLHQDWLNGKEYKCKVSNKALGAPIEKTISKAKGQPREPQVYTLPPSRDELTKNQVSLTCLVKGFYPSDIAVEWESNGQPENNYKTTPPVLDSDGSFLLYSKLTVDKSRWQQGNVFSCSVMHEALHNHYTQKSLSLSPGK | 172
BsVHH-4 (35x16) (antibody) QVQLQESGGGLVQGGGSLRLSCAASGGIFSSYAMGWFRQAPGKEREFVAAISRSGRSTNYADSVKGRFTISRDNAKSTVYLQMNSLKPEETAVYYCAAGRYYNSAYDPSPGDFGSWGHGTQVTVSSGGGGSGGGGSGGGGSGSEVQLVESGGGLVQAGGSLRLSCAASGRAIENYPVGWFRQAPGKEREFVAAITWISGSTLYADSVKGRFTISRDNAKNTVYLQMSSLKPEDTALYYCAAALKTITRGQNDYSYWGQGTQVTVSSGGGGSGGGGSGGGGSTVSSDKTHTCPPCPAPEAAGGPSVFLFPPKPKDTLMISRTPEVTCVVVDVSHEDPEVKFNWYVDGVEVHNAKTKPREEQYNSTYRVVSVLTVLHQDWLNGKEYKCKVSNKALGAPIEKTISKAKGQPREPQVYTLPPSRDELTKNQVSLTCLVKGFYPSDIAVEWESNGQPENNYKTTPPVLDSDGSFLLYSKLTVDKSRWQQGNVFSCSVMHEALHNHYTQKSLSLSPGK | 3.5
BsVHH-10 (36x18) (antibody) QVQLVESGGGLVQAGGSLRLSCAASGRTLSRYAMGWFRQAPGSEREFVAASSWGGDTFYADSVEGRFTFSRDNAKNAVYLQMNSLQPEDTAAYYCAAAPTSFPTTAYSSSNSYAYWGQGTQVTVSSGGGGSGGGGSGGGGSGSQVQLVESGGGLVQPGGSLRLSCAISGGTLDSYGIGWVRQAPGKQREGVSCMSRSDDRTYYADSVKGRFTISKDSAKNTVYLQMTSLKPEDTAVYYCAAVDAYGCSLVQPTTYDFWGLGTQVTVSSGGGGSGGGGSGGGGSTVSSDKTHTCPPCPAPEAAGGPSVFLFPPKPKDTLMISRTPEVTCVVVDVSHEDPEVKFNWYVDGVEVHNAKTKPREEQYNSTYRVVSVLTVLHQDWLNGKEYKCKVSNKALGAPIEKTISKAKGQPREPQVYTLPPSRDELTKNQVSLTCLVKGFYPSDIAVEWESNGQPENNYKTTPPVLDSDGSFLLYSKLTVDKSRWQQGNVFSCSVMHEALHNHYTQKSLSLSPGK | 4.2
BsVHH-20 (36x22) (antibody) QVQLVESGGGLVQAGGSLRLSCAASGRTLSRYAMGWFRQAPGSEREFVAASSWGGDTFYADSVEGRFTFSRDNAKNAVYLQMNSLQPEDTAAYYCAAAPTSFPTTAYSSSNSYAYWGQGTQVTVSSGGGGSGGGGSGGGGSGSEVQLVESGGGLVQAGGSLRLSCAASGSIFSINAMAWFRQVPGMERELVAAISRDGGASVYRDSVKGRFTISRDNSKNTVYLQMNTLKPEDTAIYVCAATRAIGWTARWITTDFDFWGQGTQVTVSSGGGGSGGGGSGGGGSTVSSDKTHTCPPCPAPEAAGGPSVFLFPPKPKDTLMISRTPEVTCVVVDVSHEDPEVKFNWYVDGVEVHNAKTKPREEQYNSTYRVVSVLTVLHQDWLNGKEYKCKVSNKALGAPIEKTISKAKGQPREPQVYTLPPSRDELTKNQVSLTCLVKGFYPSDIAVEWESNGQPENNYKTTPPVLDSDGSFLLYSKLTVDKSRWQQGNVFSCSVMHEALHNHYTQKSLSLSPGK | 3.4
